From publication PMC8503651, “The Stress-Active Cell Division Protein ZapE Alters FtsZ Filament Architecture to Facilitate Division in Escherichia coli” (Frontiers in Microbiology, 2021) come the findings set out here.

Residue numbers refer to the chain shown, from its start. Names and notes keep the numbering of the source.

Sequences and labels used below:
B1: ZapE (N-terminal six histidine fusion protein) (enzyme, Escherichia coli, UniProt P64612 1-375, looked up)
chain: MQSVTPTSQYLKALNEGSHQPDDVQKEAVSRLEIIYQELINSTPPAPRTSGLMARVGKLWGKREDTKHTPVRGLYMWGGVGRGKTWLMDLFYQSLPGERKQRLHFHRFMLRVHEELTALQGQTDPLEIIADRFKAETDVLCFDEFFVSDITDAMLLGGLMKALFARGITLVATSNIPPDELYRNGLQRARFLPAIDAIKQHCDVMNVDAGVDYRLRTLTQAHLWLSPLHDETRAQMDKLWLALAGGKRENSPTLEINHRPLATMGVENQTLAVSFTTLCVDARSQHDYIALSRLFHTVMLFDVPVMTRLMESEARRFIALVDEFYERHVKLVVSAEVPLYEIYQGDRLKFEFQRCLSRLQEMQSEEYLKREHLAG
B2: ZapE (H6-ZapE) (Escherichia coli K-12) (protein)
chain: B1 chain
notes: full-length, N-terminal 6xHis tag kept, pET-28a, expressed in E. coli BL21 (λde3); calculated mass 44,583 Da; predominantly monomer
B3: ZapE(K84A) (N-terminal histidine fusion protein) (enzyme, Escherichia coli, UniProt P64612 1-375, looked up)
chain: B1 chain with K84A
notes: ZapE of Escherichia coli with the Walker A substitution K84A (defective for ATP hydrolysis); pET-28a, site-directed mutagenesis; also called H6-ZapE(K84A); His6-zapE(K84A); source: E. coli BL21 (λde3), purified (cobalt column, sephadex G25); not shown: His6, N-terminal, kept
B4: FtsZ (native) (natural protein, Escherichia coli, UniProt P0A9A6 1-383, looked up)
chain: MFEPMELTNDAVIKVIGVGGGGGNAVEHMVRERIEGVEFFAVNTDAQALRKTAVGQTIQIGSGITKGLGAGANPEVGRNAADEDRDALRAALEGADMVFIAAGMGGGTGTGAAPVVAEVAKDLGILTVAVVTKPFNFEGKKRMAFAEQGITELSKHVDSLITIPNDKLLKVLGRGISLLDAFGAANDVLKGAVQGIAELITRPGLMNVDFADVRTVMSEMGYAMMGSGVASGEDRAEEAAEMAISSPLLEDIDLSGARGVLVNITAGFDLRLDEFETVGNTIRAFASDNATVVIGTSLDPDMNDELRVTVVATGIGMDKRPEITLVTNKQVQQPVMDRYQQHGMAPLTQEQKPVAKVVNDNAPQTAKEPDYLDIPAFLRKQAD
notes: FtsZ, tubulin-like GTPase and cell division protein of Escherichia coli; native (no tag named); Assembles into polymers with GTP; also called Native FtsZ; wild type FtsZ; source: E. coli BL21 (λde3), purified as described (Camberg et al., 2009)

In data set [1] the target is ZapE (N-terminal six histidine fusion protein) (Escherichia coli) (UniProt P64612). Description: co-sedimentation; phospholipid recruitment: Gfp-FtsZ (3 μM) with GTP (4 mM) added to ZapE (1 μM) pre-assembled with SUVs (500 μg ml^-1) and ATP (4 mM); 50 mM HEPES pH 7.5, 150 mM KCl, 20 mM MgCl2; 21,000 × g for 15 min; percent in the pellet by densitometry; 6% of Gfp-FtsZ in the pellet without ….

Data set [2] deals with Histidine-tagged Gfp-FtsZ (Escherichia coli). Nature of the data set: filter retention (ultrafiltration, 100 kDa filter); ZapE or ZapE(K84A) (5 μM) with Gfp-FtsZ (10 μM) and ATP (4 mM), without GTP; 50 mM MES pH 6.5, 100 mM KCl, 10 mM MgCl2, 23°C, 10 min; filtrate and retentate by SDS-PAGE and densitometry; ZapE alone retained 33.4%, ZapE(K84A) alone 50.3%.
For data set [3], the target named is B4. Nature of the data set: cell-based or functional assay.
Substrate in data set [4]: Nc1ncnc2c1ncn2[C@@H]1O[C@H](COP(=O)(O)OP(=O)(O)OP(=O)(O)O)[C@@H](O)[C@H]1O
Nature of the data set: phosphate release (Biomol Green), Michaelis-Menten fit. It counts as biochemical, Escherichia coli. The settings on record: 12 μM ZapE, ATP 0 to 5 mM, 50 mM HEPES pH 7.5, 150 mM KCl, 20 mM MgCl2, 23°C.

Data set [5] deals with B4. Description: co-sedimentation; FtsZ (6 μM) with GTP (2 mM) or without GTP, with or without ZapE or ZapE(K84A) (8 μM), with or without ATP or ATPγS (4 mM); 50 mM HEPES pH 7.5, 150 mM KCl, 20 mM MgCl2, 23°C, 10 min; 250,000 × g for 20 min; supernatants and pellets by SDS-PAGE and Coomassie. The following applies: both partners purified.
Data set [6] deals with the molecule itself. The description is as above.

In data set [1], Histidine-tagged Gfp-FtsZ displayed a percent of total Gfp-FtsZ in the phospholipid pellet of 21.6%. In turn, B1 gave a percent of total ZapE retained on the filter in data set [2] of 63.4%. In data set [3], the “maximum 90° light scatter of FtsZ (8 μM) after addition of GTP (1.5 mM), ZapE 0 to 8 μM with ATP (4 mM)” value is more than 2 fold. Turning to B2, the Km (as a rule, the substrate concentration at which the rate is half of its maximum) in data set [4] came to 1700 ± 360 µM. As for B3, the percent of ZapE(K84A) retained on the filter in data set [2] was 80.2%. Besides, in data set [5], the binding result was “binds”. With B4, the binding result in data set [6] is “binds”.
